Substitutions are numbered along the chain they refer to.
T1: recombinant tetanus toxin fragment C (rTTC) (Clostridium tetani, UniProt P04958 865-1315)
T1 sequence: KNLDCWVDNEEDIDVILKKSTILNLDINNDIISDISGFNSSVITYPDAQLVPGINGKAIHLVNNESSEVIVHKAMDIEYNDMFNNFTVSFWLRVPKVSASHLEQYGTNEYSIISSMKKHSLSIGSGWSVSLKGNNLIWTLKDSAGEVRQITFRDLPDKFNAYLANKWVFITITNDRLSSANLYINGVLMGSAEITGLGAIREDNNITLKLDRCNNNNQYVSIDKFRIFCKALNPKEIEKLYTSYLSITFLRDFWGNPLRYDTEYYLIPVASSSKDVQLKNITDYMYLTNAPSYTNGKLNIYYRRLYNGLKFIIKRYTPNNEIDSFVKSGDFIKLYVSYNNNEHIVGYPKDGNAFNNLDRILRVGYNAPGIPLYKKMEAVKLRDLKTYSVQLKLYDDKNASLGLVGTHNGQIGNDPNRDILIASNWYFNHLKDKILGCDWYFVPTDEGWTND

T2: recombinant tetanus toxin fragment C (rTTC) (Clostridium tetani, UniProt P04958 865-1315)
T2 sequence: T1 sequence

B1: SVT31L (VHH)
VHH: QVQLQESGGGSVQAGGSLTLSCAASEFSYNDYTIAWFRRAAGKGRVEDGEGVASITKSYDRAYDNRIHYADSVKGRFTISRDNAKNTVYLQMTSLNPSDTAVYYCALDITPPGGIGASLTEGFLFDYWGQGTQVTVSS
B2: SVT29L (VHH)
VHH: QVQLQESGGGLVQTGGSLTLSCRAYGRAFDNYHFGWFRQAPGKDREFVASISWKGGSTYRANFALGRFTSSVNRGESSVYLHMSGLTPEDTATYYCAAHDGGDWNYHTGMDYWGKGILVTVSS
B3: SVT05L (VHH)
VHH: QVQLQESGGGLVQPGGSLRLSCSASGFSFTDDYGIGWFRSGPGKGREAVAPIADREAVAAIALSDGNTYYSASAKGRFTISRDNAKSTAYLQMNNLKPEDTATYYCAADFWGYGMSWPMATLWEYWGQGIQVTVSS
B4: SVT25L (VHH)
VHH: QVQLQESGGGLVQAGGSLRLSCAASGRTISVYAMGWFRQAPGKQREFVAAISRSDNTYYTDSVKGRFTISRDNVKNTLYLQMNSLKPEETAVYYCAADPNLMYETKWKYRALEAWGQGTLVTVSS
B5: SVT20L (VHH)
VHH: QVQLQQSGGGLVQAGGSLRLSCAASGRTMSSYAMGWFRQAPGKQREFVAAISRSGGNTYYTDSVKGRFTISRDNAKNTLYLQMNSLKPEETAVYYCAADPNLMYESKWKYRALEAWGQGTLVTVSS
B6: SVT20 (VHH)
VHH: B5 VHH
B7: SVT34 (VHH)
VHH: B5 VHH with Q6E, A14P, M29I, T69I, S85N
B8: SVT16 (VHH)
VHH: B4 VHH with L11S, G16D, V31N, V74A, T105S
B9: SVT25 (VHH)
VHH: B4 VHH
B10: SVT08 (VHH)
VHH: B1 VHH with T19R, A23T, K57T, A70G, S94N, A106G
B11: SVT06 (VHH)
VHH: QVQLQESGGGSVQAGGSLRLSCTASELSYDDYTIAWFRRAAGEGRVEDGEGVASITKSYDRAYDNKINYGHSVKGRFTISRDNAKNTVYLQMTDLLPSDTAVYYCALDITPPGGVGASLTEGFLFDYWGQGTQVTVSS
B12: SVT31 (VHH)
VHH: B1 VHH
B13: SVT15 (VHH)
VHH: B2 VHH with T19R, Y25S, D30A, R60Y, N73D, G75A, H82Q
B14: SVT29 (VHH)
VHH: B2 VHH
B15: SVT13 (VHH)
VHH: QVQLQESGGGLVQAGGSLRLSCAVSGTNFDDYAIGWFRQAPGKRREAVACISKTDGVTRYGNGVKGRFTISSDEARNTVFLQMNDLKDEDTAIYYCIGDFKSCGMGYKPIDHWGRGIQVTVSS
B16: SVT22 (VHH)
VHH: QVQLQESGGGLVQAGESLRLSCTASGISFDDYAIGWFRQAPGQQRKGVACISKADGRTDYLGSVKGRFTLSTDNTKNTVHLQMNNLKPEDTALYTCAAEYKSCGMGYKPIDYWGQGMQVTVSS
B17: SVT05 (VHH)
VHH: B3 VHH

Target: T3, tetanus neurotoxin (TeNT), authentic tetanus holotoxin (Clostridium tetani, UniProt P04958 2-1315)
Assay: ELISA, directly coated TeNT, biotinylated binder
T3 sequence (P04958 2-457 limits assumed, chain 1 of 2): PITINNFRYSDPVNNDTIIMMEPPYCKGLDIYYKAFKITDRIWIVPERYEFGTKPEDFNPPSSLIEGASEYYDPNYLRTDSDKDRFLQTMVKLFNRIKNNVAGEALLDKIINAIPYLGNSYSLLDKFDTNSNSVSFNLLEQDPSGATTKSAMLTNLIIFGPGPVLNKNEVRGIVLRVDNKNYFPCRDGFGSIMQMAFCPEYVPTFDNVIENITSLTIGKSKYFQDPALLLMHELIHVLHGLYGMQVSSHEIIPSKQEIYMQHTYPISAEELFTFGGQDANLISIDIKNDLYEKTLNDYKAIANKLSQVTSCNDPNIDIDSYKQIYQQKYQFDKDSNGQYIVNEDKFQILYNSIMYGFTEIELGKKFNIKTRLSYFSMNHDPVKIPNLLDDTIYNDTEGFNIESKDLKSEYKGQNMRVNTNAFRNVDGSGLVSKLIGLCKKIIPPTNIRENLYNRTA
T3 sequence (P04958 458-1315 limits assumed, chain 2 of 2): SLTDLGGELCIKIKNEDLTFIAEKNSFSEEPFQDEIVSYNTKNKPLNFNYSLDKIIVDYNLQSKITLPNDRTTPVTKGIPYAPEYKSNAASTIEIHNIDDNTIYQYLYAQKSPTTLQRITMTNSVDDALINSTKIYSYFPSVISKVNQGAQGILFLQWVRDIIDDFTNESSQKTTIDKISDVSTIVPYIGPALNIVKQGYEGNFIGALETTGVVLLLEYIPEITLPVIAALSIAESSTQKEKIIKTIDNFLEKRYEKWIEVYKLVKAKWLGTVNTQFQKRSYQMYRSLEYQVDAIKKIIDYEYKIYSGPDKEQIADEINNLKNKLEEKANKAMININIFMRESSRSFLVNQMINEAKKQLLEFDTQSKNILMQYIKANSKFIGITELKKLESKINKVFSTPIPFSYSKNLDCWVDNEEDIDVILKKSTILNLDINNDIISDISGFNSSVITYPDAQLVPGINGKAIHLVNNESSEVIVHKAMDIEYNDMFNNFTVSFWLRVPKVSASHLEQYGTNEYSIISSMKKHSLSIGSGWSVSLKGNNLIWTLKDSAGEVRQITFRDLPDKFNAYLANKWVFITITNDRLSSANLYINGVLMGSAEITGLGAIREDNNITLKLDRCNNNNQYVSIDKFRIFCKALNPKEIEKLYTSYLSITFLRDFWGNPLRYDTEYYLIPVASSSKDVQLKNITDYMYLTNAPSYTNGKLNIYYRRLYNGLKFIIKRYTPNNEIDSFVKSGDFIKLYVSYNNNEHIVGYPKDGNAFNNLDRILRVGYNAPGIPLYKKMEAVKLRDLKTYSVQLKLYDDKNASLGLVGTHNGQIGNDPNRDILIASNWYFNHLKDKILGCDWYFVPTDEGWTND

Point of comparison: B5, “EC resulting in A450 0.4” value 2.1 ng/mL. Against it:
- B1 — 2.1-fold lower, 0.98 ng/mL
- B2 — 3.3-fold higher, 6.9 ng/mL
- B3 — 2.1-fold lower, 0.98 ng/mL
- B4 — 20-fold higher, 43 ng/mL

Point of comparison: B2, “maximal absorbance at 450 nm” value 1.13. Against it:
- B1 — higher, 1.43
- B3 — higher, 1.26
- B4 — lower, 0.985
- B5 — higher, 1.2

Target: T1, recombinant tetanus toxin fragment C …
Assay: ELISA, directly coated rTTC, unlabelled binder

Point of comparison: B1, “maximal absorbance at 450 nm” value 0.483. Against it:
- B2 — higher, 0.58
- B3 — higher, 0.604
- B4 — higher, 0.936
- B5 — higher, 0.967

Target: T3, tetanus neurotoxin (TeNT), authentic …
Assay: ELISA, TeNT captured with cAb-TT2, unlabelled binder

Point of comparison: B4, “EC resulting in A450 0.15” value 6.4 ng/mL. Against it:
- B1 — within 1.5-fold, 4.3 ng/mL
- B2 — within 1.5-fold, 6.3 ng/mL
- B3 — 7.4-fold lower, 0.86 ng/mL
- B5 — 2.1-fold lower, 3.1 ng/mL

Point of comparison: B3, “maximal absorbance at 450 nm” value 0.375. Against it:
- B1 — lower, 0.27
- B2 — higher, 0.429
- B4 — lower, 0.362
- B5 — lower, 0.327

Target: T4, tetanus neurotoxin (TeNT), authentic tetanus holotoxin (Clostridium tetani, UniProt P04958 2-1315)
Assay: ELISA, directly coated TeNT, E. coli supernatant
T4 sequence (P04958 2-457 limits assumed, chain 1 of 2): as the sequence (P04958 2-457 limits assumed, chain 1 of 2) above
T4 sequence (P04958 458-1315 limits assumed, chain 2 of 2): as the sequence (P04958 458-1315 limits assumed, chain 2 of 2) above

Point of comparison: B10, “absorbance at 450 nm” value 1.07 A450. Against it:
- B6 — higher, 1.08 A450
- B7 — higher, 1.43 A450
- B8 — lower, 1.04 A450
- B9 — higher, 1.14 A450
- B11 — lower, 1.04 A450
- B12 — higher, 1.38 A450
- B13 — lower, 1.03 A450
- B14 — higher, 1.28 A450
- B15 — lower, 0.762 A450
- B16 — higher, 1.08 A450
- B17 — lower, 1.04 A450

Target: T3, tetanus neurotoxin (TeNT), authentic …
Assay: GT1b-TeNT inhibition ELISA, unlabelled binder

Point of comparison: B1, “minimal absorbance at 450 nm” value 0.568. Against it:
- B2 — lower, 0.135
- B3 — higher, 0.655
- B4 — lower, 0.106
- B5 — lower, 0.117

Target: T2, recombinant tetanus toxin fragment C …
Assay: ELISA, directly coated rTTC, E. coli supernatant

Point of comparison: B12, “absorbance at 450 nm” value 0.218 A450. Against it:
- B6 — lower, 0.165 A450
- B7 — lower, 0.16 A450
- B8 — lower, 0.151 A450
- B9 — lower, 0.211 A450
- B10 — lower, 0.13 A450
- B11 — lower, 0.105 A450
- B13 — lower, 0.099 A450
- B14 — lower, 0.111 A450
- B15 — lower, 0.128 A450
- B16 — lower, 0.138 A450
- B17 — lower, 0.108 A450

Target: T3, tetanus neurotoxin (TeNT), authentic …
Assay: ELISA, TeNT captured with cAb-TT2, biotinylated binder

Point of comparison: B5, “EC resulting in A450 0.2” value 4.5 ng/mL. Against it:
- B1 — 3-fold lower, 1.5 ng/mL
- B2 — 3.1-fold higher, 14 ng/mL
- B3 — 2.6-fold lower, 1.7 ng/mL
- B4 — 19-fold higher, 84 ng/mL

Point of comparison: B3, “maximal absorbance at 450 nm” value 0.622. Against it:
- B1 — higher, 1.03
- B2 — lower, 0.596
- B4 — lower, 0.302
- B5 — lower, 0.535

Target: T3, tetanus neurotoxin (TeNT), authentic …
Assay: GT1b-TeNT inhibition ELISA, EC at A450 0.59

Point of comparison: B1, “concentration giving A450 of 0.59” value 0.986 µg/mL. Against it:
- B2 — 8.6-fold lower, 0.114 µg/mL
- B3 — higher, > 1 µg/mL
- B4 — 7.4-fold lower, 0.133 µg/mL
- B5 — 25-fold lower, 0.039 µg/mL

Target: T3, tetanus neurotoxin (TeNT), authentic …
Assay: ELISA, directly coated TeNT, unlabelled binder

Point of comparison: B4, “EC resulting in A450 0.2” value 3.6 ng/mL. Against it:
- B1 — 1.5-fold lower, 2.4 ng/mL
- B2 — within 1.5-fold, 2.6 ng/mL
- B3 — 7.1-fold lower, 0.51 ng/mL
- B5 — 3-fold lower, 1.2 ng/mL

Point of comparison: B3, “maximal absorbance at 450 nm” value 1.29. Against it:
- B1 — higher, 1.32
- B2 — higher, 1.52
- B4 — higher, 1.56
- B5 — higher, 1.54

Target: T4, tetanus neurotoxin (TeNT), authentic …
Assay: ELISA, cAb-TT2 captured TeNT, E. coli supernatant

Point of comparison: B6, “absorbance at 450 nm” value 0.685 A450. Against it:
- B7 — lower, 0.483 A450
- B8 — higher, 0.736 A450
- B9 — lower, 0.427 A450
- B10 — lower, 0.51 A450
- B11 — lower, 0.683 A450
- B12 — higher, 1.09 A450
- B13 — lower, 0.68 A450
- B14 — higher, 0.868 A450
- B15 — lower, 0.165 A450
- B16 — lower, 0.299 A450
- B17 — lower, 0.548 A450

Target: T4, tetanus neurotoxin (TeNT), authentic …
Assay: GT1b-TeNT inhibition ELISA (no SDA: 1.302, 1.257)

Point of comparison: B7, “absorbance at 450 nm” value 0.117 A450. Against it:
- B6 — higher, 0.132 A450
- B8 — higher, 0.12 A450
- B9 — higher, 0.139 A450
- B10 — higher, 0.746 A450
- B11 — higher, 0.72 A450
- B12 — lower, 0.105 A450
- B13 — higher, 0.19 A450
- B14 — higher, 0.152 A450
- B15 — higher, 0.196 A450
- B16 — higher, 0.137 A450
- B17 — higher, 0.985 A450

Source: patent US20240376185A1 (SMIVET B V, published 2024)
